Results: patent US10125184B2, “Apolipoprotein E polypeptides and their use” (priority 2011, dated 2018)

B1: hEP: human apoE dual-domain peptide: helix 4 of N-terminal domain plus major lipid-binding region; expressed in bacteria (protein)
peptide: EELRVRLASHLRKLRKRLLRDADDLQKRLAVYEEQAQQIRLQAEAFQARLKSWFEPLVEDM

Tests used:
JFH1 HCVcc = experiment: HCVcc binding assay (real-time PCR of vRNA, Huh7.5.1 cells); format: cell-based, Hepatitis C virus; conditions: 2.7 μM, 2 hours at 4° C., relative to scrambled peptide
Protocol: (§1) FIGS. 5A-5D. hEP inhibits HCV entry at the attachment step. (A) HCVcc-luc was first mixed with either scrambled peptide or hEP-2 (20 μg/ml) for one hour at room temperature. In Group 1, mixed virus was directly added to Huh7.5.1 cells, whereas in Group 2, virus was purified through ultracentrifuge at 28,000×g for 4 hours in order to remove peptide, and then used to infect Huh7.5.1 cells. **p<0.005. (B) The kinetics of hEP- and bafilomycin A1-mediated inhibition were determined by time-of-addition assays, as described in the examples section. Fitted lines represent sigmoidal time-dependent curves (mean of n=3; error bars, s.d.). […] Heparin (200 μg/ml), anti-CD81 monoclonal antibody (5 μg/ml), hEP (20 μg/ml), or bafilomycin A1 (10 nM) were present in the media either continuously, during the 4° C. incubation only (attachment), or during the 37° C. incubation phase only (post-attachment). % Inhibition was calculated as 100-percent infection relative to control infections containing DMSO or an isotype antibody control containing 0.01% sodium azide (for anti-CD81 only) (mean of n=3; error bars, s.d.). (D) The effects of hEP (2.7 μM) or scrambled peptide on HCV binding were determined as described in the examples section. Results were calculated as relative RNA copies with numbers obtained from the scrambled peptide treated wells set to 100 (mean of n=3; error bars, s.d.). **p<0.005. […]

SR-BI = experiment: Immunoblot of SR-BI; format: cell-based
Protocol: (§2) FIGS. 4A-4C. (A) Huh7.5.1 cells seeded in a 12-well plate were treated with hEP-2 (20 μg/ml) for indicated time periods. Cells were stained with a mouse IgG (istotype control) or the anti-LDLR antibody followed by flow cytometric analysis. An overlay of 7 histograms is presented and the Δ median fluorescence intensity (ΔMFI, LDLR stain minus isotype control stain) of each sample is indicated to the upper right of the figure. (B) Cells were stained with anti-CD81 antibody and analyzed similarly as in A. (C) Immunonblots of SR-BI, CLDN1, and OCLN in the presence of hEP-2 or scrambled peptide.

Huh7.5.1 cells = experiment: Cytotoxicity/cell viability assay (CellTiter-Glo); format: cell-based; conditions: 48 hours; hEP up to 100 μg/ml (~14 μM)
Protocol: FIGS. 1A-1C. A human apoE derived peptide (hEP) suppresses HCV infection. (A) Schematic illustration of apoE protein domains and the amino acid sequences of hEP and mEP peptides. The amino acid sequences shown are hEP-1 (SEQ ID NO: 6) and mEP (SEQ ID NO: 20). (B) Dose dependent inhibition of HCVcc infection by hEP. Huh7.5.1 cells were infected with JFH-1 HCVcc-Luc (MOI˜0.5) in the presence of hEP or mEP for 2 hours. After removal of virus and peptides, cells were further incubated for 48 hours prior to luciferase assay. Data are presented as % inhibition relative to control infections in which cells were treated with DMSO (0%). Results are expressed as mean±standard deviation (s.d.) (n=3). (C). Huh7.5.1 cells were treated with hEP or DMSO at indicated doses for 48 hours. The effect of hEP on cell viability was measured by a CellTiter Glo assay kit.
Huh7.5.1 cells (10^5 per well) were treated with hEP or DMSO at various concentrations for 48 hours in 24-well plates. The numbers of viable cells in culture were determined using the CELLTITER-GLO® Cell Viability Luminescent Assay kit according to the manufacturer's instruction (Promega).

CD81 = CD81 level on Huh7.5.1 cells by flow cytometry; format: cell-based
Protocol: as §2

HCVcc-luc = experiment: Time-of-addition assay; format: cell-based, Hepatitis C virus; conditions: 20 μg/ml (2.7 μM)
Protocol: as §1

| Molecule | Amount of viral RNA (vRNA) bound to cells (JFH1 HCVcc) | Effect on level of SR-BI (SR-BI) | Cytotoxicity (cell viability) (Huh7.5.1 cells) | Effect on level of CD81 (CD81) | Activity when added after the temperature shift (time of addition) (HCVcc-luc) |
| --- | --- | --- | --- | --- | --- |
| EELRVRLASHLRKLRKRLLRDADDLQKRLAVYEEQAQQIRLQAEAFQARLKSWFEPLVEDM [hEP-1] | decreased significantly |  |  |  |  |
| B1 |  | did not affect | no cytotoxicity | did not affect | disappeared almost completely |
